Assay [1] addresses T1, human hippocampal Y5 receptor (human).
T1 chain: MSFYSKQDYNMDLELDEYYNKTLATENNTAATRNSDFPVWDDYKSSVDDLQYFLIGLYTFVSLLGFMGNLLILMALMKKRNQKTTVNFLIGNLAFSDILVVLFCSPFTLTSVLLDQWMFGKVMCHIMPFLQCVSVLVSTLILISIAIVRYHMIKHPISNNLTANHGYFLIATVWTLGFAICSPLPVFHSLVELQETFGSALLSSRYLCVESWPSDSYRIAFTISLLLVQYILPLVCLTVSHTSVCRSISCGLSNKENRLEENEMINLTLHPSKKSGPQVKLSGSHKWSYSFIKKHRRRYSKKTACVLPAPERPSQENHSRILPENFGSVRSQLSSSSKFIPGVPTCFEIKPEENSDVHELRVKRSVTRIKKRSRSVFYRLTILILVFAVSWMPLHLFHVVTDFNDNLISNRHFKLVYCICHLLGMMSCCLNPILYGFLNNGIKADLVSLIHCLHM
Put plainly: 125I-PYY displacement, COS-7 membranes.
Method: (§1) Peptides were tested at concentrations ranging from 0.001 nM to 1000 nM. IC₅₀ values corresponding to 50% displacement were determined by nonlinear regression analysis and converted to Kᵢ values according to the Cheng-Prusoff equation.

The target of assay [2] is T2, rat hypothalamic Y5 receptor (rat).
T2 chain: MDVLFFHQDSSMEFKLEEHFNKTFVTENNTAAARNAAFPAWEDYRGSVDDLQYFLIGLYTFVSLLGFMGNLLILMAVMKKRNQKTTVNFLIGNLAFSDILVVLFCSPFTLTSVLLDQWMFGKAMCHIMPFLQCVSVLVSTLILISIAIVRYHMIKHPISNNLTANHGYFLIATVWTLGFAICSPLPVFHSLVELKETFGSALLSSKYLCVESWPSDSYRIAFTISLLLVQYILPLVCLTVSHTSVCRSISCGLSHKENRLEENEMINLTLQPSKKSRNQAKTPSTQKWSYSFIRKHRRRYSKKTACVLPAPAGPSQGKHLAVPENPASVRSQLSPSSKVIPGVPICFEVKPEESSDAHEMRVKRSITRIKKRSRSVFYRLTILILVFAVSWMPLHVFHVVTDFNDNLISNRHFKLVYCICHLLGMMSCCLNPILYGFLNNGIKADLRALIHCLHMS
Put plainly: 125I-PYY displacement, COS-7 membranes.
Method: as §1

The target in assay [3] is T2, rat hypothalamic Y5 receptor. Nature of the assay: 125I-PYY displacement, COS-7 membranes.
Method: (§2) Peptides were tested at concentrations ranging from 0.001 nM to 1000 nM. IC₅₀ values corresponding to 50% displacement were determined by nonlinear regression analysis and converted to Kᵢ values according to the Cheng-Prusoff equation. […] Exception: new peptides (marked with a double asterisk) were tested in one or more independent experiments.
Another assay has as its target rat Y1 receptor (rat, UniProt P21555). Nature of the assay: 125I-PYY displacement, COS-7 membranes.
A further assay deals with T3, rat Y2 receptor (rat, UniProt Q9ERC0).
T3 sequence: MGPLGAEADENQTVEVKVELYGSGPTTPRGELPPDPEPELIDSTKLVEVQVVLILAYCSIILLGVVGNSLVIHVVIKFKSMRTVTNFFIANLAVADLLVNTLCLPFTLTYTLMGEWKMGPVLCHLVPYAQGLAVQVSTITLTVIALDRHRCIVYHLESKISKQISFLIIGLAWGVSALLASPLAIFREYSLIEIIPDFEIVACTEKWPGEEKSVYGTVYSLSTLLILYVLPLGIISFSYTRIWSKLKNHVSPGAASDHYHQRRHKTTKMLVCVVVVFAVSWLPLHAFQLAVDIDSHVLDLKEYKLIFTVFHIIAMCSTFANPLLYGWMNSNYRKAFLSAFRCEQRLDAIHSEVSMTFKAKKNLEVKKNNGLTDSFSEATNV
Nature of the assay: 125I-PYY displacement, COS-7 membranes.

Assay [4] deals with T1, human hippocampal Y5 receptor. Nature of the assay: 125I-PYY3-36 displacement, LM(tk-) membranes.
Method: as §1
Assay [5] deals with T4, human Y1 receptor (human, UniProt P25929). Nature of the assay: 125I-PYY displacement, COS-7 membranes.
Method: (§3) Peptides were tested at concentrations ranging from 0.001 nM to 1000 nM unless noted. IC₅₀ values corresponding to 50% displacement were determined by nonlinear regression analysis and converted to Kᵢ values according to the Cheng-Prusoff equation.
Assay [6] deals with T5, human Y4 receptor (human, UniProt P50391). Nature of the assay: 125I-PYY displacement, COS-7 membranes.
Method: as §3
Assay [7] concerns the target T2, rat hypothalamic Y5 receptor. Nature of the assay: 125I-PYY displacement, COS-7 membranes.
Method: as §3
Assay [8] has as its target T6, human Y2 receptor (human, UniProt P49146).
T6 sequence: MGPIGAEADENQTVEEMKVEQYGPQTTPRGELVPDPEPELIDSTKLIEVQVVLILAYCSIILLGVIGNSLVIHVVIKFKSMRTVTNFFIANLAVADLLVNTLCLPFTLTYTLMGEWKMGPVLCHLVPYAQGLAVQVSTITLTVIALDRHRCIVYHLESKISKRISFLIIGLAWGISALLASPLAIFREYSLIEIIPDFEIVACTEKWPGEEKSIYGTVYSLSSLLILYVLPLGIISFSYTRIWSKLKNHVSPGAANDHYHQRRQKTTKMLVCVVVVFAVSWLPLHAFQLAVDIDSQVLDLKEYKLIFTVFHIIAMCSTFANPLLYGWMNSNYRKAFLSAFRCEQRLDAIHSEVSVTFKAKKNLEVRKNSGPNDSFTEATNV
Nature of the assay: 125I-PYY displacement, COS-7 membranes.
Method: as §3

In assay [9] the target is T4, human Y1 receptor. Nature of the assay: 125I-PYY displacement, COS-7 membranes. This is another data set of the same source.
Method: as §3
Assay [10] has as its target T5, human Y4 receptor. Put plainly: 125I-PYY displacement, COS-7 membranes. The source holds these as a separate data set.
Method: as §3
Assay [11] addresses T1, human hippocampal Y5 receptor. Nature of the assay: 125I-PYY displacement, COS-7 membranes.
Method: as §3
The target of assay [12] is T6, human Y2 receptor. Put plainly: 125I-PYY displacement, COS-7 membranes. The source holds these as a separate data set.
Method: as §3
The target in another assay is rat Y4 receptor (rat, UniProt Q63447). Put plainly: 125I-PYY displacement, COS-7 membranes.
Assay [13] has as its target T1, human hippocampal Y5 receptor. Put plainly: 125I-PYY displacement, LM(tk-) membranes.
Method: as §1
Assay [14] concerns the target T4, human Y1 receptor. Put plainly: 125I-PYY displacement, COS-7 membranes; tested only up to 100 nM.
For assay [15], the target named is T6, human Y2 receptor. The assay is described as above.
Assay [16] deals with T4, human Y1 receptor. Described as above. The source holds these as a separate data set.
Assay [17] addresses T6, human Y2 receptor. Described as above. The source holds these as a separate data set.

Where two headings read alike, the source gives them in different places. Ends that are not written are not given here.

Method for rat Y1 receptor: as §2
Method for rat Y2 receptor: as §2
Method for rat Y4 receptor: as §2

B1: porcine NPY18-36 (peptide)
peptide: ARYYSALRHYINLITRQRY
modifications: ends and bridges not checked
The Ki is a dissociation constant, usually derived from enzyme kinetics or from competition with a known ligand. A higher Ki goes with weaker binding. For the molecule B1, the Ki in assay [1] is above 470 nM; in assay [2], above 1000 nM; in assay [3], above 1000 nM.

B2: porcine NPY13-36 (peptide)
peptide: PAEDLARYYSALRHYINLITRQRY
modifications: ends and bridges not checked
For the molecule B2, the figures for the Ki with rat Y1 receptor and with rat Y2 receptor were 190 nM and 31 nM, respectively.

B3: rat PP (peptide)
peptide: APLEPMYPGDYATHEQRAQYETQLRRYINTLTRPRY
As for B3, the Ki was 130 nM in [4]; 630 nM in assay [1]; 230 nM in assay [2]; 450 nM with human Y1 receptor [5]; 0.16 nM with human Y4 receptor [6]; 180 nM in assay [7]. Moreover, the Ki in the assay with human Y2 receptor [8] is above 1000 nM; in the assay with human Y1 receptor [9], 450 nM; with human Y4 receptor [10], 0.16 nM; in assay [11], 630 nM; with human Y2 receptor [12], above 1000 nM; in [3], 230 nM. The Ki with rat Y2 receptor was above 1000 nM.

B4: human PYY13-36 (peptide)
peptide: SPEELNRYYASLRHYLNLVTRQRY
As to B4, affinity with rat Y1 receptor was put at a Ki of 130 nM.

B5: porcine NPY16-36 (peptide)
peptide: DLARYYSALRHYINLITRQRY
modifications: ends and bridges not checked
As to B5, the Ki in assay [4] stood at 180 nM; in assay [1], 300 nM; in assay [2], 260 nM; in the assay with rat Y4 receptor, 200 nM; with rat Y1 receptor, 140 nM; in assay [3], 260 nM. Besides, in the assay with rat Y2 receptor, the Ki stood at 35 nM.

B6: human PP (peptide)
peptide: APLEPVYPGDNATPEQMAQYAADLRRYINMLTRPRY
As for B6, the Ki in assay [2] is 5 nM; in assay [7], 5 nM; in assay [13], 3 nM; with rat Y4 receptor, 0.04 nM; in [3] it was 5 nM; with rat Y2 receptor, above 1000 nM.

B7: bovine PP (peptide)
peptide: APLEPEYPGDNATPEQMAQYAAELRRYINMLTRPRY
Take B7: the Ki in assay [4] is 5 nM; in assay [1] it was 1.6 nM; in [2] it was 8.4 nM; in assay [13] it was 7.9 nM; with rat Y1 receptor, 120 nM; in assay [3], 8.4 nM. Also, the Ki in the assay with rat Y2 receptor is above 1000 nM.

B8: human PP31-36 free acid (peptide)
peptide: PLEPVY-OH
On to B8, for which the values for the Ki (with rat Y4 receptor; in assay [3]) were above 100 nM and above 10000 nM, respectively.

B9: human PP13-36 (peptide)
peptide: TPEQMAQYAADLRRYINMLTRPRY
For B9, the Ki with human Y1 receptor [14] was above 100 nM; with human Y2 receptor [15] it was above 100 nM; in assay [1], 720 nM; in assay [2] it was 290 nM; with human Y4 receptor [6], 39 nM; in the assay with human Y4 receptor [10], 39 nM. The Ki in assay [11] is 720 nM; in the assay with rat Y1 receptor, above 1000 nM; in assay [3], 84 nM; in the assay with rat Y2 receptor it was above 650 nM; with human Y1 receptor [16], above 100 nM; in the assay with human Y2 receptor [17] it was above 100 nM.

B10: porcine NPY26-36 (peptide)
peptide: HYINLITRQRY
modifications: ends and bridges not checked
Consider B10, for which the Ki in the assay with human Y1 receptor [5] was above 1000 nM; in the assay with human Y2 receptor [8] it was 380 nM; in the assay with human Y1 receptor [9], above 1000 nM; with human Y2 receptor [12], 380 nM; in the assay with rat Y1 receptor it was above 1000 nM.

B11: FLRF-amide (peptide)
peptide: FLRF-NH2
B11: the Ki with rat Y1 receptor turned out to be 45000 nM; in assay [3], 5500 nM.

B12: porcine NPY20-36 (peptide)
peptide: YYSALRHYINLITRQRY
modifications: ends and bridges not checked
As for B12, the Ki in assay [3] was above 100 nM.

B13: human NPY1-24 amide (peptide)
peptide: YPSKPDNPGEDAPAEDMARYYSAL-NH2
The molecule B13 displayed a Ki in [3] above 1000 nM.

B14: porcine NPY22-36 (peptide)
peptide: SALRHYINLITRQRY
modifications: ends and bridges not checked
With B14, the Ki in [1] was above 1000 nM; in assay [2], above 1000 nM; in the assay with rat Y1 receptor, above 1000 nM; in assay [3], above 1000 nM; in the assay with rat Y2 receptor, 54 nM.

B15: human PP2-36 (peptide)
peptide: PLEPVYPGDNATPEQMAQYAADLRRYINMLTRPRY
In the case of B15, the Ki in assay [1] and in assay [11] was 2.1 nM in each case.

B16: human PP31-36 (peptide)
peptide: PLEPVY
With B16, the Ki is 41000 nM in assay [4]; above 10000 nM in [1]; above 10000 nM in assay [2]; 26 nM in the assay with rat Y4 receptor; above 10000 nM in the assay with rat Y1 receptor; above 1000 nM in assay [3]. In addition, the Ki with rat Y2 receptor is above 10000 nM.

Values taken from US20020103123A1, “Methods of modifying feeding behavior, compounds useful in such methods, and DNA encoding a hypothalamic atypical neuropeptide Y/peptide YY receptor (Y5)” (Synaptic Pharmaceutical Corporation, published 2002).
